Test results from publication PMC2808764.

Target: GST-βPIX (UniProt Q14155)
Assay: pull-down

For “His-tagged MYO18A-CB (His-MYO18A-CB) (domain or fragment)”, the fold amount pulled down, against GST-GIT1 was 2 fold.
